In US20190177366A1 (published 2019):
Numbered stars: 1 amine (or outer) side, 2 acyl side, 3 side chain; on linkers, the order of the positions; unused ones are H or OH. Bridge positions count the residues as written; N and C are the ends. Square brackets hold non-standard residues; d marks the D form. Primed or numbered codes have the meaning given here. NH(CH2)9CO = O=C(CCCCCCCCCN[*:1])[*:2]; NH(CH2)8CO = O=C(CCCCCCCCN[*:1])[*:2]; hArg = N=C(N)NCCCC[C@H](N)C(=O)O; Cit = NC(=O)NCCC[C@H](N)C(=O)O; Aun = NCCCCCCCCCCC(=O)O; Hyp′ = 3-hydroxyproline; Aoc = NCCCCCCCC(=O)O; Ahp = NCCCCCCC(=O)O; Ahx = NCCCCCC(=O)O; Ava = NCCCCC(=O)O

B1: Compound 84 (peptide)
peptide: Ac-CRLPWNLQR[NH(CH2)9CO]C-NH2
modifications: disulfide 1-11
SMILES: CC(=O)N[C@H]1CSSC[C@@H](C(N)=O)NC(=O)CCCCCCCCCNC(=O)[C@H](CCCNC(=N)N)NC(=O)[C@H](CCC(N)=O)NC(=O)[C@H](CC(C)C)NC(=O)[C@H](CC(N)=O)NC(=O)[C@H](Cc2c[nH]c3ccccc23)NC(=O)[C@@H]2CCCN2C(=O)[C@H](CC(C)C)NC(=O)[C@H](CCCNC(=N)N)NC1=O
B2: Compound 105 (peptide)
peptide: Ac-CRLPW[dN]LQRIGLPC-NH2
modifications: disulfide 1-14
SMILES: CC[C@H](C)[C@@H]1NC(=O)[C@H](CCCNC(=N)N)NC(=O)[C@H](CCC(N)=O)NC(=O)[C@H](CC(C)C)NC(=O)[C@@H](CC(N)=O)NC(=O)[C@H](Cc2c[nH]c3ccccc23)NC(=O)[C@@H]2CCCN2C(=O)[C@H](CC(C)C)NC(=O)[C@H](CCCNC(=N)N)NC(=O)[C@@H](NC(C)=O)CSSC[C@@H](C(N)=O)NC(=O)[C@@H]2CCCN2C(=O)[C@H](CC(C)C)NC(=O)CNC1=O
B3: Compound 106 (peptide)
peptide: Ac-CRLP[dW]NLQRIGLPC-NH2
modifications: disulfide 1-14
SMILES: CC[C@H](C)[C@@H]1NC(=O)[C@H](CCCNC(=N)N)NC(=O)[C@H](CCC(N)=O)NC(=O)[C@H](CC(C)C)NC(=O)[C@H](CC(N)=O)NC(=O)[C@@H](Cc2c[nH]c3ccccc23)NC(=O)[C@@H]2CCCN2C(=O)[C@H](CC(C)C)NC(=O)[C@H](CCCNC(=N)N)NC(=O)[C@@H](NC(C)=O)CSSC[C@@H](C(N)=O)NC(=O)[C@@H]2CCCN2C(=O)[C@H](CC(C)C)NC(=O)CNC1=O
B4: Compound 117 (peptide)
peptide: Ac-CRLPWNLQ[hArg]IGLPC-NH2
modifications: disulfide 1-14
SMILES: CC[C@H](C)[C@@H]1NC(=O)[C@H](CCCCNC(=N)N)NC(=O)[C@H](CCC(N)=O)NC(=O)[C@H](CC(C)C)NC(=O)[C@H](CC(N)=O)NC(=O)[C@H](Cc2c[nH]c3ccccc23)NC(=O)[C@@H]2CCCN2C(=O)[C@H](CC(C)C)NC(=O)[C@H](CCCNC(=N)N)NC(=O)[C@@H](NC(C)=O)CSSC[C@@H](C(N)=O)NC(=O)[C@@H]2CCCN2C(=O)[C@H](CC(C)C)NC(=O)CNC1=O
B5: Compound 116 (peptide)
peptide: Ac-CRLPWNLQRI[Ahx]C-NH2
modifications: disulfide 1-12
SMILES: CC[C@H](C)[C@@H]1NC(=O)[C@H](CCCNC(=N)N)NC(=O)[C@H](CCC(N)=O)NC(=O)[C@H](CC(C)C)NC(=O)[C@H](CC(N)=O)NC(=O)[C@H](Cc2c[nH]c3ccccc23)NC(=O)[C@@H]2CCCN2C(=O)[C@H](CC(C)C)NC(=O)[C@H](CCCNC(=N)N)NC(=O)[C@@H](NC(C)=O)CSSC[C@@H](C(N)=O)NC(=O)CCCCCNC1=O
B6: Compound 107 (peptide)
peptide: Ac-CRL[dP]WNLQRIGLPC-NH2
modifications: disulfide 1-14
SMILES: CC[C@H](C)[C@@H]1NC(=O)[C@H](CCCNC(=N)N)NC(=O)[C@H](CCC(N)=O)NC(=O)[C@H](CC(C)C)NC(=O)[C@H](CC(N)=O)NC(=O)[C@H](Cc2c[nH]c3ccccc23)NC(=O)[C@H]2CCCN2C(=O)[C@H](CC(C)C)NC(=O)[C@H](CCCNC(=N)N)NC(=O)[C@@H](NC(C)=O)CSSC[C@@H](C(N)=O)NC(=O)[C@@H]2CCCN2C(=O)[C@H](CC(C)C)NC(=O)CNC1=O
B7: Compound 121 (peptide)
peptide: Ac-CRLPWNLQRI[Ahp]C-NH2
modifications: disulfide 1-12
SMILES: CC[C@H](C)[C@@H]1NC(=O)[C@H](CCCNC(=N)N)NC(=O)[C@H](CCC(N)=O)NC(=O)[C@H](CC(C)C)NC(=O)[C@H](CC(N)=O)NC(=O)[C@H](Cc2c[nH]c3ccccc23)NC(=O)[C@@H]2CCCN2C(=O)[C@H](CC(C)C)NC(=O)[C@H](CCCNC(=N)N)NC(=O)[C@@H](NC(C)=O)CSSC[C@@H](C(N)=O)NC(=O)CCCCCCNC1=O
B8: Compound 83 (peptide)
peptide: Ac-CRLPWNLQR[Aun]C-NH2
modifications: disulfide 1-11
SMILES: CC(=O)N[C@H]1CSSC[C@@H](C(N)=O)NC(=O)CCCCCCCCCCNC(=O)[C@H](CCCNC(=N)N)NC(=O)[C@H](CCC(N)=O)NC(=O)[C@H](CC(C)C)NC(=O)[C@H](CC(N)=O)NC(=O)[C@H](Cc2c[nH]c3ccccc23)NC(=O)[C@@H]2CCCN2C(=O)[C@H](CC(C)C)NC(=O)[C@H](CCCNC(=N)N)NC1=O
B9: Compound 104 (peptide)
peptide: Ac-CRLPWN[dL]QRIGLPC-NH2
modifications: disulfide 1-14
SMILES: CC[C@H](C)[C@@H]1NC(=O)[C@H](CCCNC(=N)N)NC(=O)[C@H](CCC(N)=O)NC(=O)[C@@H](CC(C)C)NC(=O)[C@H](CC(N)=O)NC(=O)[C@H](Cc2c[nH]c3ccccc23)NC(=O)[C@@H]2CCCN2C(=O)[C@H](CC(C)C)NC(=O)[C@H](CCCNC(=N)N)NC(=O)[C@@H](NC(C)=O)CSSC[C@@H](C(N)=O)NC(=O)[C@@H]2CCCN2C(=O)[C@H](CC(C)C)NC(=O)CNC1=O
notes: also called Ac-CRLPWNlQRIGLPC-NH2
B10: Compound 63 (peptide)
peptide: Ac-MCLWNLKRIGSQCEY-NH2
modifications: disulfide 2-13
SMILES: CC[C@H](C)[C@@H]1NC(=O)[C@H](CCCNC(=N)N)NC(=O)[C@H](CCCCN)NC(=O)[C@H](CC(C)C)NC(=O)[C@H](CC(N)=O)NC(=O)[C@H](Cc2c[nH]c3ccccc23)NC(=O)[C@H](CC(C)C)NC(=O)[C@@H](NC(=O)[C@H](CCSC)NC(C)=O)CSSC[C@@H](C(=O)N[C@@H](CCC(=O)O)C(=O)N[C@@H](Cc2ccc(O)cc2)C(N)=O)NC(=O)[C@H](CCC(N)=O)NC(=O)[C@H](CO)NC(=O)CNC1=O
B11: Compound 95 (peptide)
peptide: Ac-FCLWNLKRIGSQCEY-NH2
modifications: disulfide 2-13
SMILES: CC[C@H](C)[C@@H]1NC(=O)[C@H](CCCNC(=N)N)NC(=O)[C@H](CCCCN)NC(=O)[C@H](CC(C)C)NC(=O)[C@H](CC(N)=O)NC(=O)[C@H](Cc2c[nH]c3ccccc23)NC(=O)[C@H](CC(C)C)NC(=O)[C@@H](NC(=O)[C@H](Cc2ccccc2)NC(C)=O)CSSC[C@@H](C(=O)N[C@@H](CCC(=O)O)C(=O)N[C@@H](Cc2ccc(O)cc2)C(N)=O)NC(=O)[C@H](CCC(N)=O)NC(=O)[C@H](CO)NC(=O)CNC1=O
B12: Compound 65 (peptide)
peptide: Ac-WCLWNLKRIGSQCEY-NH2
modifications: disulfide 2-13
SMILES: CC[C@H](C)[C@@H]1NC(=O)[C@H](CCCNC(=N)N)NC(=O)[C@H](CCCCN)NC(=O)[C@H](CC(C)C)NC(=O)[C@H](CC(N)=O)NC(=O)[C@H](Cc2c[nH]c3ccccc23)NC(=O)[C@H](CC(C)C)NC(=O)[C@@H](NC(=O)[C@H](Cc2c[nH]c3ccccc23)NC(C)=O)CSSC[C@@H](C(=O)N[C@@H](CCC(=O)O)C(=O)N[C@@H](Cc2ccc(O)cc2)C(N)=O)NC(=O)[C@H](CCC(N)=O)NC(=O)[C@H](CO)NC(=O)CNC1=O
B13: Compound 64 (peptide)
peptide: Ac-DCLWNLKRIGSQCEY-NH2
modifications: disulfide 2-13
SMILES: CC[C@H](C)[C@@H]1NC(=O)[C@H](CCCNC(=N)N)NC(=O)[C@H](CCCCN)NC(=O)[C@H](CC(C)C)NC(=O)[C@H](CC(N)=O)NC(=O)[C@H](Cc2c[nH]c3ccccc23)NC(=O)[C@H](CC(C)C)NC(=O)[C@@H](NC(=O)[C@H](CC(=O)O)NC(C)=O)CSSC[C@@H](C(=O)N[C@@H](CCC(=O)O)C(=O)N[C@@H](Cc2ccc(O)cc2)C(N)=O)NC(=O)[C@H](CCC(N)=O)NC(=O)[C@H](CO)NC(=O)CNC1=O
B14: Compound 86 (peptide)
peptide: Ac-CRLPWNLQR[Aoc]C-NH2
modifications: disulfide 1-11
SMILES: CC(=O)N[C@H]1CSSC[C@@H](C(N)=O)NC(=O)CCCCCCCNC(=O)[C@H](CCCNC(=N)N)NC(=O)[C@H](CCC(N)=O)NC(=O)[C@H](CC(C)C)NC(=O)[C@H](CC(N)=O)NC(=O)[C@H](Cc2c[nH]c3ccccc23)NC(=O)[C@@H]2CCCN2C(=O)[C@H](CC(C)C)NC(=O)[C@H](CCCNC(=N)N)NC1=O
B15: Compound 115 (peptide)
peptide: Ac-CRLPWNLQRI[Ava]C-NH2
modifications: disulfide 1-12
SMILES: CC[C@H](C)[C@@H]1NC(=O)[C@H](CCCNC(=N)N)NC(=O)[C@H](CCC(N)=O)NC(=O)[C@H](CC(C)C)NC(=O)[C@H](CC(N)=O)NC(=O)[C@H](Cc2c[nH]c3ccccc23)NC(=O)[C@@H]2CCCN2C(=O)[C@H](CC(C)C)NC(=O)[C@H](CCCNC(=N)N)NC(=O)[C@@H](NC(C)=O)CSSC[C@@H](C(N)=O)NC(=O)CCCCNC1=O
B16: Compound 36 (peptide)
peptide: Ac-SGCFIPWNLQ[Cit]IGLPC-NH2
modifications: disulfide 3-16
SMILES: CC[C@H](C)[C@@H]1NC(=O)[C@H](CCCNC(N)=O)NC(=O)[C@H](CCC(N)=O)NC(=O)[C@H](CC(C)C)NC(=O)[C@H](CC(N)=O)NC(=O)[C@H](Cc2c[nH]c3ccccc23)NC(=O)[C@@H]2CCCN2C(=O)[C@H]([C@@H](C)CC)NC(=O)[C@H](Cc2ccccc2)NC(=O)[C@@H](NC(=O)CNC(=O)[C@H](CO)NC(C)=O)CSSC[C@@H](C(N)=O)NC(=O)[C@@H]2CCCN2C(=O)[C@H](CC(C)C)NC(=O)CNC1=O
B17: Compound 85 (peptide)
peptide: Ac-CRLPWNLQR[NH(CH2)8CO]C-NH2
modifications: disulfide 1-11
SMILES: CC(=O)N[C@H]1CSSC[C@@H](C(N)=O)NC(=O)CCCCCCCCNC(=O)[C@H](CCCNC(=N)N)NC(=O)[C@H](CCC(N)=O)NC(=O)[C@H](CC(C)C)NC(=O)[C@H](CC(N)=O)NC(=O)[C@H](Cc2c[nH]c3ccccc23)NC(=O)[C@@H]2CCCN2C(=O)[C@H](CC(C)C)NC(=O)[C@H](CCCNC(=N)N)NC1=O

Biological target: T1, His-tagged, full-length PCSK9 (human, UniProt A8T644 31-152; Q8NBP7 153-692)
T1 construct: Target protein of the PCSK9/EGF(A) TR-FRET assay (10 nM); also called His-PCSK9; proprotein convertase subtilisin/kexin type 9
T1 sequence (A8T644 31-152 limits assumed, chain 1 of 2): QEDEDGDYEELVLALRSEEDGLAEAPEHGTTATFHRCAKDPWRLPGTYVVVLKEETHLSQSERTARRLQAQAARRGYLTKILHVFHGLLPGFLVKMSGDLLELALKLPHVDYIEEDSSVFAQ
T1 sequence (A8T644 other isoform, or with tags, fused parts or gaps limits assumed, chain 2 of 2): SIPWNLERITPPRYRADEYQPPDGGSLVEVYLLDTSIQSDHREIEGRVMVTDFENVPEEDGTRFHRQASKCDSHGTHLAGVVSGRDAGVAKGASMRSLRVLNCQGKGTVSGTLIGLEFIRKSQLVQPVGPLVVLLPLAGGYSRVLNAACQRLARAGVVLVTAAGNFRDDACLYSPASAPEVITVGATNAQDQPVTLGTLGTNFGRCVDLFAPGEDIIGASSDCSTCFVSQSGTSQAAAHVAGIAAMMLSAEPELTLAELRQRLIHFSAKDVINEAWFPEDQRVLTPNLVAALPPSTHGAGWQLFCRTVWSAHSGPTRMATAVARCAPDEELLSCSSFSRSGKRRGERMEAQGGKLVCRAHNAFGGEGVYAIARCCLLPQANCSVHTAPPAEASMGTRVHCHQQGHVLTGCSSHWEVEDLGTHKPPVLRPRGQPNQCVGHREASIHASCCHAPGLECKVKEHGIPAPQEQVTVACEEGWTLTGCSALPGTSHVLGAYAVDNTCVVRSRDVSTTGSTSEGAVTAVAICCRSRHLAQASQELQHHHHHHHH
Test: TR-FRET competition; competitor EGF(A)-Fc on His-PCSK9

Binder	IC50
Ac-SGCRL[Hyp′]WNLQRIGLPC-NH2 (disulfide 3-16) [Compound 37]	> 50 µM
B1	> 50 µM
B2	> 50 µM
B3	> 50 µM
B4	> 50 µM
B5	> 50 µM
B6	> 50 µM
B7	> 50 µM
B8	> 50 µM
B9	> 50 µM
B10	14.6 µM
B11	> 50 µM
B12	> 50 µM
B13	> 50 µM
B14	> 50 µM
B15	> 50 µM
B16	> 50 µM
B17	> 50 µM
